Data on one substance can be found in publication doi:10.1101/2020.10.23.352708.

Some targets named below: CXCR4 D97E (human) (UniProt P61073); CXCR4 L41A (human) (UniProt P61073); CXCR4 V112L (human) (UniProt P61073).
Holding throughout (assay): flow cytometry on cells

Consider “Endogenous Peptide Inhibitor of CXCR4 (EPI-X4)”, for which the fold reduction of the binding affinity against wild-type CXCR4 in the test with CXCR4 D97E (human) came out at 20 fold. Moreover, the fold increase of the IC50 against wild-type CXCR4 was found to be 20 fold in the test with CXCR4 L41A (human) and 6 fold with CXCR4 V112L (human).
